{
  "source": "paper PMC9798103",
  "about": "(The Journal of Cell Biology, 2022)",
  "binders": {"B1": {"name": "N-terminal half of C. elegans RHGF-1 (RHGF-1-N) (domain or fragment)", "chain": "MRSYEFVTNTPLKLDRHKVYLVDDVAVTRTVPLSQPLSPSTASSSYNMIERCVVVQRQPDGFGLTVNSEFPVYVHTLKQDGAAYCAGVRQGDRIVKVNGMSVSPNNHKEVLQMISNGHNVALTLLGKPPDPISNISFPNQQVEQKIHIADPVLIEASSKSWRQRRNELLGQMVAEERRNVEGLRESSQNGEKIDRALKRIVSLQSQLKQLKPESIISDSQKSLTNLNMDIDSDEEENDVVYLPESQGGPFSNLAELKTHPAHLAVFINYLLLHGNPSSLFFYLITDAYQSAYGTAKEFRRWAFEIFSTFIIPNSPMCIPNSNQSVIQPIDKIMCMTAEHIGDSDTDTLKRIFVPGRQRAVTDINMYLNDFRQKKQLGGQVSESTNQLTHMVRGDMTMEHRVGEQMLFRCLEQCSNSTDFDSCEIRTQSIISSLATVIKIVLGKTSSSSNEKMLDKFPQFMARDKPPGKSRKLPANIKNRIQVKGHSFSINSVNTVHYCYQCRDAIWGMQPWIYFCSNCDVKVHPHCTSALTDACYPVTQSKQKSKSRLSGLIGRSDANDDEDSGSNARHEQPNVKSTSSDSGIGGEHNMDRGLVSRSHSMRYRVATLPQSLSEDKVSIPSSKRDRSVTPSWQRST"}},
  "target": "F-actin (polymerised from Ca2+-ATP G-actin of rabbit skeletal muscle) (rabbit, UniProt P68135 1-377)",
  "assay": "co-sedimentation",
  "data": [
    {"binder": "B1", "values": [
      {"measurement": "Kd", "result": 5.25, "unit": "µM"}
    ]}
  ]
}
